Results on 9 molecules are retold here after patent US5773001 (American Cyanamid Company, dated 1998).

Like-named read-outs stand apart in the source and are kept apart here. Bounds are passed on as bounds.

In test [1] the target is CD33 antigen (human) (UniProt P20138).
Test [2] has the same target. Briefly: competition with 125I-labelled native antibody on HEL 92.1.7 cells; IC50 (reference) / IC50 (sample).
For test [3] the target is unchanged. The source holds these as a separate data set.
For test [4] the target is unchanged. The source holds these as a separate data set.
The target is the same in test [5]. This is another data set of the same source.
In test [6] the target is T1, glycoprotein antigen present on colon cancer cells, recognized by A33 (Homo sapiens (Human)) (UniProt Q99795).
T1 sequence: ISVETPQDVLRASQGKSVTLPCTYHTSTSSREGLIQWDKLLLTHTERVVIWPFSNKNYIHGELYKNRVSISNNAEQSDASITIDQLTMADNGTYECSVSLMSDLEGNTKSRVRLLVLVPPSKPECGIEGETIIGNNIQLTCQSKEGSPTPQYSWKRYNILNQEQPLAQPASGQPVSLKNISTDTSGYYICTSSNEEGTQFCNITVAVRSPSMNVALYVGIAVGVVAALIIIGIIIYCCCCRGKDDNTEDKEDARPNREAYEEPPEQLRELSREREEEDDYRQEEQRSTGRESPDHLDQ
As to the kind of experiment: competition on Colo205 cells, FACScan; competitor FITC-labelled murine A33.

The target of test [7] is CD33 antigen (human) (UniProt P20138). This is another data set of the same source.
Test [8] shares this target. As to the kind of experiment: competition with 125I-labelled native antibody on HEL 92.1.7 cells; IC50 (reference) / IC50 (sample). This is another data set of the same source.
For test [9] the target is unchanged. The source holds these as a separate data set.
Test [10] shares this target. This is another data set of the same source.
Test [11] shares this target. The source holds these as a separate data set.

In the test with CD33 antigen (human) [1], “Conjugate of 4-(2-acetyl-1-naphthalenyl)oxy! butanoic acid (20) condensed with Calicheamicin N-acetyl gamma dimethyl hydrazide and m-P67.6 (antibody)” came in with an In vitro IC50 (3H-thymidine incorporation) of 0.0067 ng/mL. The Rel. Affinity in the test with CD33 antigen (human) [2] is 0.66. In the test with CD33 antigen (human) [3], “Conjugate of 5-acetyl-2-(3-carboxypropoxy)benzoic acid (26), methyl ester condensed with Calicheamicin N-acetyl gamma dimethyl hydrazide and h-P67.6 (antibody)” showed an In vitro IC50 (3H-thymidine incorporation) below 0.005 ng/mL. The molecule further showed a Rel. Affinity in the test with CD33 antigen (human) [2] of 0.79. For “Conjugate of 11-(4-acetylphenoxy)undecanoic acid (23) condensed with Calicheamicin N-acetyl gamma dimethyl hydrazide and m-P67.6 (antibody)”, the In vitro IC50 (3H-thymidine incorporation) with CD33 antigen (human) [4] is 0.47 ng/mL. In addition, the Rel. Affinity with CD33 antigen (human) [2] is 1.16. In turn, “Conjugate of 5-(4-acetylphenyl)amino!-5-oxopentanoic acid (24) condensed with Calicheamicin N-acetyl gamma dimethyl hydrazide and m-P67.6 (antibody)” yielded an In vitro IC50 (3H-thymidine incorporation) with CD33 antigen (human) [5] below 0.005 ng/mL. In addition, in the test with CD33 antigen (human) [2], the Rel. Affinity was 0.73.

With humanized A33 (antibody), in test [6], the relative potency against the murine antibody is 75%.

B1: Conjugate of 4-4-(4-fluorobenzoyl)phenoxy!butanoic acid (21) condensed with Calicheamicin N-acetyl gamma dimethyl hydrazide and h-P67.6 (antibody, V domains shown)
VH: EVQLVQSGAEVKKPGSSVKVSCKASGYTITDSNIHWVRQAPGQSLEWIGYIYPYNGGTDYNQKFKNRATLTVDNPTNTAYMELSSLRSEDTDFYYCVNGNPWLAYWGQGTLVTVSS
VL: DIQLTQSPSTLSASVGDRVTITCRASESLDNYGIRFLTWFQQKPGKAPKLLMYAASNQGSGVPSRFSGSGSGTEFTLTISSLQPDDFATYYCQQTKEVPWSFGQGTKVEVKR
modifications: drug-linker amide on lysine side chains, sites not stated; drug-linker amide on lysine side chains, sites not stated
B1 had an In vitro IC50 (3H-thymidine incorporation) with CD33 antigen (human) [7] of 99 ng/mL. The same molecule registered a Rel. Affinity with CD33 antigen (human) [8] of 0.67.

B2: Conjugate of 4-(4-acetylphenyl)-1-piperazinepentanoic acid (22) condensed with Calicheamicin N-acetyl gamma dimethyl hydrazide and h-P67.6 (antibody, V domains shown)
VH: EVQLVQSGAEVKKPGSSVKVSCKASGYTITDSNIHWVRQAPGQSLEWIGYIYPYNGGTDYNQKFKNRATLTVDNPTNTAYMELSSLRSEDTDFYYCVNGNPWLAYWGQGTLVTVSS
VL: DIQLTQSPSTLSASVGDRVTITCRASESLDNYGIRFLTWFQQKPGKAPKLLMYAASNQGSGVPSRFSGSGSGTEFTLTISSLQPDDFATYYCQQTKEVPWSFGQGTKVEVKR
modifications: drug-linker amide on lysine side chains, sites not stated; drug-linker amide on lysine side chains, sites not stated
Molecule B2 displayed an In vitro IC50 (3H-thymidine incorporation) with CD33 antigen (human) [9] of 12 ng/mL. This molecule also returned a Rel. Affinity with CD33 antigen (human) [8] of 0.98.

B3: Conjugate of 2-acetyl-10H-phenothiazine-10-hexanoic acid (32) condensed with Calicheamicin N-acetyl gamma dimethyl hydrazide and h-P67.6 (antibody, V domains shown)
VH: EVQLVQSGAEVKKPGSSVKVSCKASGYTITDSNIHWVRQAPGQSLEWIGYIYPYNGGTDYNQKFKNRATLTVDNPTNTAYMELSSLRSEDTDFYYCVNGNPWLAYWGQGTLVTVSS
VL: DIQLTQSPSTLSASVGDRVTITCRASESLDNYGIRFLTWFQQKPGKAPKLLMYAASNQGSGVPSRFSGSGSGTEFTLTISSLQPDDFATYYCQQTKEVPWSFGQGTKVEVKR
modifications: drug-linker amide on lysine side chains, sites not stated; drug-linker amide on lysine side chains, sites not stated
As to B3, the In vitro IC50 (3H-thymidine incorporation) in the test with CD33 antigen (human) [10] came out at 0.021 ng/mL. The same molecule returned a Rel. Affinity with CD33 antigen (human) [8] of 1.25.

B4: Conjugate of 4-4-(4-fluorobenzoyl)phenoxy!butanoic acid (21) condensed with Calicheamicin N-acetyl gamma, dimethyl hydrazide and h-P67.6 (antibody, V domains shown)
VH: EVQLVQSGAEVKKPGSSVKVSCKASGYTITDSNIHWVRQAPGQSLEWIGYIYPYNGGTDYNQKFKNRATLTVDNPTNTAYMELSSLRSEDTDFYYCVNGNPWLAYWGQGTLVTVSS
VL: DIQLTQSPSTLSASVGDRVTITCRASESLDNYGIRFLTWFQQKPGKAPKLLMYAASNQGSGVPSRFSGSGSGTEFTLTISSLQPDDFATYYCQQTKEVPWSFGQGTKVEVKR
modifications: drug-linker amide on lysine side chains, sites not stated; drug-linker amide on lysine side chains, sites not stated
B4 yielded an In vitro IC50 (3H-thymidine incorporation) with CD33 antigen (human) [11] of 63 ng/mL. The molecule further yielded a Rel. Affinity with CD33 antigen (human) [8] of 0.76.
